Results: patent JP2018158894A (dated 2018)

Target: T1, ヒンジ領域組換えタンパク質 (LGR6 hinge region partial protein, amino acids 446-567, with Trx-, S- and His-tags) (Homo sapiens (Human), UniProt Q9HBX8 446-567)
T1 construct: Used as immunogen and as ELISA antigen; also called LGR6のヒンジ領域部分タンパク質; hinge region recombinant protein; not shown: N-terminal Trx-, S- and His-tag from the pET32b vector; C-terminal His-tag from the pET32b vector
T1 sequence: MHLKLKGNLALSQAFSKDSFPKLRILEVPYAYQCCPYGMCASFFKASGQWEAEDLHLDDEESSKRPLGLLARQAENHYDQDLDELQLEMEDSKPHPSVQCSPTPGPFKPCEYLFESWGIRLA
Experiment: Ag-ELISA, hybridoma culture supernatant on coated protein

binding result: binds
B1: m164抗体 (anti-LGR6 mouse monoclonal antibody produced by hybridoma clone 164) (antibody, V domains shown)
VH: EVQLQQSGPELVKPGASVKISCKTSGYTFTEYTMHWVKQSHGKSLEWIGGINPYNRVSSYNQRFKGKATLTVDKSSSTAYMELRSLTSEDSAVYYCARRYDVFDSWGQGTTLTVSS
VL: DIVMSQSPSSLAVSVGEKVSMSCKSSQSLLYSSNQKNYLAWYQQKPGQSPKLLISWASTRESGVPARFTGSGSGTDFTLTISSVRAEDLAVYYCQQHFNYPYTFGGGAKLEMK
notes: Tested as the mouse antibody from the hybridoma (culture supernatant or Protein G purified); the primers used were for mouse IgG1 CH and mouse kappa light chain; also called m164; LGR6抗体m164
